Measurements taken from US20060286615A1.

Target: monoclonal anti-H2a antibody of hybridoma clone B9 (ECACC 04030801)
Assay: competitive ELISA, antibody preincubated overnight with free specific peptide, then plate-bound peptide

CEKRRNATGEVA [H2 carboxyterminal peptide (SEQ ID NO:1, …)]
% inhibition of the reaction: 81%
